The target in assay [1] is preformed complex PARP2-QFRD_Alexa488 + Nuc165 (human) (UniProt Q9UGN5). Kind of assay: FRET or BRET; Alexa647-labeled HPF1 (acceptor) titrated from 18.5 μM to 0 μM into 1 μM Alexa488-labeled PARP2 (donor) alone or into the preformed PARP2–Nuc165 complex (1 μM / 100 nM); 50 mM Tris-HCl pH 8, 50 mM NaCl, 1 mM MgCl2, 0.1 mM EDTA, 0.1 mM TCEP, 0.01% NP-40; Hill model. On the technique in general: Bioluminescence resonance energy transfer reports proximity on the nanometre scale.

For assay [2], the target named is preformed complex PARP2-WT_Alexa488 + Nuc165 (human) (UniProt Q9UGN5). Described as above.

Chain of Alexa647-labeled HPF1 (Q9NWY4 whole entry): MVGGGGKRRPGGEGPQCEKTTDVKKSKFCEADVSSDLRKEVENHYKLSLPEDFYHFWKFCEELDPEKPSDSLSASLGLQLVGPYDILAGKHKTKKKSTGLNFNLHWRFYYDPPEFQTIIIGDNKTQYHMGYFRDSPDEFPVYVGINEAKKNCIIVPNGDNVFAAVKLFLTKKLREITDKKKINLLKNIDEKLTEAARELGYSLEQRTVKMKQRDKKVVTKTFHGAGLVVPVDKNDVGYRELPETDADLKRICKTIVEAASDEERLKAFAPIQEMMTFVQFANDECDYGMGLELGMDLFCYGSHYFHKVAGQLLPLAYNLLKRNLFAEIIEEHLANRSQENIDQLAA

The Kd is the concentration at which binding is half-saturated. “Alexa647-labeled HPF1 (from UniProt Q9NWY4 1-346) (natural protein)”: the equilibrium dissociation constant (Kd) was determined as 702 nM in assay [1] and 279 nM in assay [2].

For the origin of these results see publication PMC7608914.
